Cold-induced depolymerization assays of microtubules, IC50, inhibition of the cold-induced depolymerization of microtubules, IC50 and Kd data for one substance are collected here from paper PMC12676778, “Long-tailed class I myosins rely on tail-mediated phosphoinositide recognition for specific membrane recruitment” (Cell Communication and Signaling : CCS, 2025).

Assay [1] concerns the target microtubules (UniProt P02550).
Assay [2] addresses microtubules (UniProt P02550). This is another data set of the same source.
For a further assay, the target named is F-actin (UniProt P68135). The assay is described as follows: co-sedimentation; YFP fluorescence of pellet and supernatant; increasing F-actin concentrations; 5 mM Tris pH 7.4, 100 mM KCl, 0.04% NaN3, 2 mM MgCl2; 20,000 g, 30 min, 4 °C.

microtubules, sequence (P02550 whole entry, chain 1 of 2): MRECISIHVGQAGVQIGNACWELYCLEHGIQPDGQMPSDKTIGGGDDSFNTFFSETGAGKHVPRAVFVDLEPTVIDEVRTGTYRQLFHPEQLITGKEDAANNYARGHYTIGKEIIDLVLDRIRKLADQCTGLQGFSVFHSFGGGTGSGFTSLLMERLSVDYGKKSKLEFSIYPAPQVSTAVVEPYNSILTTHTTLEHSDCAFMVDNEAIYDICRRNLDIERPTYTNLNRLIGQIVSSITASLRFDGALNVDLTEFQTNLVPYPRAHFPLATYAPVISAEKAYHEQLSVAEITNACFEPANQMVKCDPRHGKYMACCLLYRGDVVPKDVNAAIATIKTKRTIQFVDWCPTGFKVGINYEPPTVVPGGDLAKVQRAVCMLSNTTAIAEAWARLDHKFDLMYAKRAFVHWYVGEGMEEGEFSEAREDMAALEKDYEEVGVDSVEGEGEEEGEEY
microtubules, sequence (P02554 whole entry, chain 2 of 2, further chain): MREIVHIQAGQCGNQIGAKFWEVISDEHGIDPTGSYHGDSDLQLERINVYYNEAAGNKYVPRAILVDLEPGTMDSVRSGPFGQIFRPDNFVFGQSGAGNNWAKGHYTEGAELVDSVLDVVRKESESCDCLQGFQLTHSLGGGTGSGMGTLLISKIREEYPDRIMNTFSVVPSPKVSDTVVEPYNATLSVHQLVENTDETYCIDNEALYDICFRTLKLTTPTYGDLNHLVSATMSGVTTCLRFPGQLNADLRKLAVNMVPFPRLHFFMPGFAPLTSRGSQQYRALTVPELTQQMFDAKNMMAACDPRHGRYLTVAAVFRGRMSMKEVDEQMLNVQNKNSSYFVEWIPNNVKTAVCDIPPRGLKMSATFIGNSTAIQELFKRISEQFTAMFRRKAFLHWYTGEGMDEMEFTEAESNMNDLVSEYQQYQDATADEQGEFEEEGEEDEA

Usually Kd stands for the equilibrium constant for the complex coming apart. A high value points to lower affinity. In the assay with microtubules [1], “myosin-1D tail (amino acids 717–1113) (domain or fragment)” showed a cold-induced depolymerization assays of microtubules, IC50 of 20 nM. Moreover, in the assay with microtubules [2], the inhibition of the cold-induced depolymerization of microtubules, IC50 amounted to 15 nM. The same substance showed a Kd with F-actin of 12 µM.
